Data on 1 substance can be found in paper PMC2888057.

The assay addresses KCNQ1 H363C in the cysteine-less background (human) (UniProt P51787).

Turning to “KCNE1 D76C in the cysteine-less, HA-tagged background (from UniProt P15382 1-129) (natural protein)”, the time constant of oxidant (0.1% H2O2)-induced current reduction, H363C with D76C was found to be 50 s.
